First the molecules themselves.
T1: Boi1 SH3 (BOI1_YEAST), P38041
T1 chain: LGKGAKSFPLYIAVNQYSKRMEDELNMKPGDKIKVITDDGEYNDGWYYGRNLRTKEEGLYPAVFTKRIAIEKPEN

T2: Boi2 SH3 (BOI2_YEAST), P39969
T2 chain: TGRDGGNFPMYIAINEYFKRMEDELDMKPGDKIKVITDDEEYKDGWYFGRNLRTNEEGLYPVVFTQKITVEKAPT

T3: Myo5 SH3 (MYO5_YEAST), Q04439
T3 chain: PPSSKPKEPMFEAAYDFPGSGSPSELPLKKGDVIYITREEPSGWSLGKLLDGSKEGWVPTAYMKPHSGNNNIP

T4: Rvs167 SH3 (RV167_YEAST), P39743
T4 chain: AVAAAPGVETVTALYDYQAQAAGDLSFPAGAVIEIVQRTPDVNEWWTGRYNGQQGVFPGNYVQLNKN

T5: Yfr024 SH3 (LSB3_YEAST), P43603
T5 chain: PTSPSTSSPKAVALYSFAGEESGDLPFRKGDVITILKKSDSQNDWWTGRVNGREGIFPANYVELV

T6: Yhr016c SH3 (YSC84_YEAST), P32793
T6 chain: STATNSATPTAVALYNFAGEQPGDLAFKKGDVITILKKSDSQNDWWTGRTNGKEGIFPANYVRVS

B1: YNL331C 2-15 (peptide)
chain: TDLFKPLPEPPTEL
B2: YGR140W 417-430 (peptide)
chain: STNAKKDPFPPPKD
B3: YBR066C 94-107 (peptide)
chain: TASGKTSPILPLQN
B4: YMR320W 69-82 (peptide)
chain: SYISRKYPRAPAFI
B5: YDR443C 541-554 (peptide)
chain: TDLGKDIPFFPSSE
B6: YFL047W 497-510 (peptide)
chain: SYMDKIYPDLPNDK
B7: YNL226W 113-126 (peptide)
chain: SVNIKSWPLKPSNF
B8: YKL215C 38-51 (peptide)
chain: SVDPKNYPDAPLEG
B9: YHR061C 244-257 (peptide)
chain: SVSEKTNPSSPSVS
B10: YLR244C 372-385 (peptide)
chain: TARNKKSPGGPRQR
B11: YHR188C 382-395 (peptide)
chain: TDTTKVTPIVPVPI

One assay addresses T1, Boi1 SH3 (BOI1_YEAST), P38041. Nature of the assay: SPOT array.
Take B1: the normalised SPOT signal, Boehringer light units (BLU); mean over the file's lines of this peptide was found to be 32.5.

B2 displayed a normalised SPOT signal, Boehringer light units (BLU); mean over the file's lines of this peptide of 33.

Take B3: the normalised SPOT signal, Boehringer light units (BLU); mean over the file's lines of this peptide came out at 106.

As for B4, the normalised SPOT signal, Boehringer light units (BLU); mean over the file's lines of this peptide was 3080.

The molecule B5 yielded a normalised SPOT signal, Boehringer light units (BLU); mean over the file's lines of this peptide of 0.

As for B6, the normalised SPOT signal, Boehringer light units (BLU); mean over the file's lines of this peptide was found to be 221.

Regarding B7, the normalised SPOT signal, Boehringer light units (BLU); mean over the file's lines of this peptide amounted to 76.2.

For the molecule B8, the normalised SPOT signal, Boehringer light units (BLU); mean over the file's lines of this peptide came out at 114.

In turn, B9 had a normalised SPOT signal, Boehringer light units (BLU); mean over the file's lines of this peptide of 124.

The molecule B10 displayed a normalised SPOT signal, Boehringer light units (BLU); mean over the file's lines of this peptide of 273.

In turn, B11 gave a normalised SPOT signal, Boehringer light units (BLU); mean over the file's lines of this peptide of 27.1.

In a further assay the target is T2, Boi2 SH3 (BOI2_YEAST), P39969. Nature of the assay: SPOT array.
In the case of B1, the normalised SPOT signal, Boehringer light units (BLU); mean over the file's lines of this peptide turned out to be 23.1.

For the molecule B2, the normalised SPOT signal, Boehringer light units (BLU); mean over the file's lines of this peptide turned out to be 0.9.

B3: the normalised SPOT signal, Boehringer light units (BLU); mean over the file's lines of this peptide is 20.8.

The molecule B4 gave a normalised SPOT signal, Boehringer light units (BLU); mean over the file's lines of this peptide of 32.8.

Turning to B5, the normalised SPOT signal, Boehringer light units (BLU); mean over the file's lines of this peptide came to 15.6.

Molecule B6 returned a normalised SPOT signal, Boehringer light units (BLU); mean over the file's lines of this peptide of 22.8.

As to B7, the normalised SPOT signal, Boehringer light units (BLU); mean over the file's lines of this peptide was found to be 0.

Take B8: the normalised SPOT signal, Boehringer light units (BLU); mean over the file's lines of this peptide is 24.7.

Take B9: the normalised SPOT signal, Boehringer light units (BLU); mean over the file's lines of this peptide was found to be 29.4.

B10 gave a normalised SPOT signal, Boehringer light units (BLU); mean over the file's lines of this peptide of 45.9.

In turn, B11 returned a normalised SPOT signal, Boehringer light units (BLU); mean over the file's lines of this peptide of -0.

The next assay concerns the target T3, Myo5 SH3 (MYO5_YEAST), Q04439. Nature of the assay: SPOT array.
Regarding B1, the normalised SPOT signal, Boehringer light units (BLU); mean over the file's lines of this peptide was 23.4.

In turn, B2 displayed a normalised SPOT signal, Boehringer light units (BLU); mean over the file's lines of this peptide of 198.

Regarding B3, the normalised SPOT signal, Boehringer light units (BLU); mean over the file's lines of this peptide was 290.

Regarding B4, the normalised SPOT signal, Boehringer light units (BLU); mean over the file's lines of this peptide stood at 740.

B5 showed a normalised SPOT signal, Boehringer light units (BLU); mean over the file's lines of this peptide of 146.

Turning to B6, the normalised SPOT signal, Boehringer light units (BLU); mean over the file's lines of this peptide amounted to 83.

Take B7: the normalised SPOT signal, Boehringer light units (BLU); mean over the file's lines of this peptide is 56.5.

B8 registered a normalised SPOT signal, Boehringer light units (BLU); mean over the file's lines of this peptide of 91.1.

Take B9: the normalised SPOT signal, Boehringer light units (BLU); mean over the file's lines of this peptide came out at 127.

B10 displayed a normalised SPOT signal, Boehringer light units (BLU); mean over the file's lines of this peptide of 593.

Take B11: the normalised SPOT signal, Boehringer light units (BLU); mean over the file's lines of this peptide was 48.

Another assay deals with T4, Rvs167 SH3 (RV167_YEAST), P39743. Nature of the assay: SPOT array.
Consider B1, for which the normalised SPOT signal, Boehringer light units (BLU); mean over the file's lines of this peptide is 18.8.

Consider B2, for which the normalised SPOT signal, Boehringer light units (BLU); mean over the file's lines of this peptide is 39.8.

Regarding B3, the normalised SPOT signal, Boehringer light units (BLU); mean over the file's lines of this peptide came out at 35.8.

Take B4: the normalised SPOT signal, Boehringer light units (BLU); mean over the file's lines of this peptide was found to be 100.

As to B5, the normalised SPOT signal, Boehringer light units (BLU); mean over the file's lines of this peptide is 59.3.

Molecule B6 yielded a normalised SPOT signal, Boehringer light units (BLU); mean over the file's lines of this peptide of 75.3.

On to B7, for which the normalised SPOT signal, Boehringer light units (BLU); mean over the file's lines of this peptide was 61.7.

In turn, B8 yielded a normalised SPOT signal, Boehringer light units (BLU); mean over the file's lines of this peptide of 17.6.

In turn, B9 yielded a normalised SPOT signal, Boehringer light units (BLU); mean over the file's lines of this peptide of 2.

For the molecule B10, the normalised SPOT signal, Boehringer light units (BLU); mean over the file's lines of this peptide stood at 84.

B11 yielded a normalised SPOT signal, Boehringer light units (BLU); mean over the file's lines of this peptide of 24.6.

Another assay deals with Sho1 SH3 (SHO1_YEAST), P40073. Kind of assay: SPOT array.
Chain of Sho1 SH3 (SHO1_YEAST), P40073 (P40073 295-366): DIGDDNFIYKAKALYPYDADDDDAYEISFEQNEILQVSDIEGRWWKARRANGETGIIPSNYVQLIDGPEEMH
Take B1: the normalised SPOT signal, Boehringer light units (BLU); mean over the file's lines of this peptide amounted to 14700.

The molecule B2 yielded a normalised SPOT signal, Boehringer light units (BLU); mean over the file's lines of this peptide of 85.

B3 showed a normalised SPOT signal, Boehringer light units (BLU); mean over the file's lines of this peptide of 0.1.

In turn, B4 showed a normalised SPOT signal, Boehringer light units (BLU); mean over the file's lines of this peptide of 50.

Molecule B5 yielded a normalised SPOT signal, Boehringer light units (BLU); mean over the file's lines of this peptide of 48.6.

Regarding B6, the normalised SPOT signal, Boehringer light units (BLU); mean over the file's lines of this peptide came to 138.

Molecule B7 gave a normalised SPOT signal, Boehringer light units (BLU); mean over the file's lines of this peptide of 49.8.

With B8, the normalised SPOT signal, Boehringer light units (BLU); mean over the file's lines of this peptide was 28.2.

The molecule B9 displayed a normalised SPOT signal, Boehringer light units (BLU); mean over the file's lines of this peptide of 111.

The molecule B10 returned a normalised SPOT signal, Boehringer light units (BLU); mean over the file's lines of this peptide of 109.

Consider B11, for which the normalised SPOT signal, Boehringer light units (BLU); mean over the file's lines of this peptide was 30.2.

The next assay addresses T5, Yfr024 SH3 (LSB3_YEAST), P43603. Nature of the assay: SPOT array.
With B1, the normalised SPOT signal, Boehringer light units (BLU); mean over the file's lines of this peptide worked out at 129.

In turn, B2 yielded a normalised SPOT signal, Boehringer light units (BLU); mean over the file's lines of this peptide of 52.1.

Consider B3, for which the normalised SPOT signal, Boehringer light units (BLU); mean over the file's lines of this peptide amounted to 2.6.

B4 gave a normalised SPOT signal, Boehringer light units (BLU); mean over the file's lines of this peptide of 212.

Molecule B5 yielded a normalised SPOT signal, Boehringer light units (BLU); mean over the file's lines of this peptide of 9.5.

In turn, B6 had a normalised SPOT signal, Boehringer light units (BLU); mean over the file's lines of this peptide of 224.

B7 yielded a normalised SPOT signal, Boehringer light units (BLU); mean over the file's lines of this peptide of 58.3.

In the case of B8, the normalised SPOT signal, Boehringer light units (BLU); mean over the file's lines of this peptide stood at 48.2.

B9 had a normalised SPOT signal, Boehringer light units (BLU); mean over the file's lines of this peptide of 0.

In the case of B10, the normalised SPOT signal, Boehringer light units (BLU); mean over the file's lines of this peptide is 423.

As to B11, the normalised SPOT signal, Boehringer light units (BLU); mean over the file's lines of this peptide came out at 11.7.

Another assay has as its target T6, Yhr016c SH3 (YSC84_YEAST), P32793. Kind of assay: SPOT array.
As to B1, the normalised SPOT signal, Boehringer light units (BLU); mean over the file's lines of this peptide was 31.5.

In turn, B2 came in with a normalised SPOT signal, Boehringer light units (BLU); mean over the file's lines of this peptide of 26.7.

For the molecule B3, the normalised SPOT signal, Boehringer light units (BLU); mean over the file's lines of this peptide turned out to be 5.1.

B4 registered a normalised SPOT signal, Boehringer light units (BLU); mean over the file's lines of this peptide of 28.8.

Molecule B5 showed a normalised SPOT signal, Boehringer light units (BLU); mean over the file's lines of this peptide of 13.5.

B6 registered a normalised SPOT signal, Boehringer light units (BLU); mean over the file's lines of this peptide of 37.2.

In the case of B7, the normalised SPOT signal, Boehringer light units (BLU); mean over the file's lines of this peptide amounted to 22.6.

Molecule B8 had a normalised SPOT signal, Boehringer light units (BLU); mean over the file's lines of this peptide of 46.1.

The molecule B9 displayed a normalised SPOT signal, Boehringer light units (BLU); mean over the file's lines of this peptide of 12.6.

On to B10, for which the normalised SPOT signal, Boehringer light units (BLU); mean over the file's lines of this peptide was 28.9.

Regarding B11, the normalised SPOT signal, Boehringer light units (BLU); mean over the file's lines of this peptide worked out at 6.5.

(Values after PMC314469, “Protein Interaction Networks by Proteome Peptide Scanning” (PLoS Biology, 2004).)
